# Results from patent publication US7608265B2, “Treatment for bacterial infections” (priority 2004, dated 2009).
# Read-outs that look alike come from different tables or passages of the source.
# B1: H1L1: synthetic antibody S Tag-CDH1-Linker-CDL1-His Tag, SEQ ID NO: 41, from dominant VH and VL of C. difficile patients; binds acetyl-CoA acetyltransferase (protein)
# chain: EVQLVESGPGLVKPSETLSLTCTVSGGSVSSGSYSWSWIRQRPGQGLEWIGFIYYTGYTSYKSSLKSRVSLSVDTSNDQFSLSLSSVTAADTAVYYCAREIRAPDHHDFSGYLGRWGQGTLVTVSSGGSGGGGSGGGGSASKSSELTQDPAVSVALGQTVRITCQGDSLRSYYASWYQQKPGQAPVLVIYGKNNRPSGIPDRFSGSSSGNTASLTITGAQAEDEADYYCNSRDSTGNQLFGGGTKVTVLG
# modifications: synthetic H1L1 antibody
# Assays:
# [1] = tested on: Vancomycin resistant Enterococcus faecium; test: Combination drug MIC (checkerboard), Enterococcus faecium; assay type: cell-based
# [2] = tested on: Clostridium difficile NCR 1104; test: microbe, parasite or virus in culture; assay type: cell-based
# [3] = tested on: C. difficile 14000287; test: Combination drug MIC (checkerboard), C. difficile 14000287, Brucella broth; assay type: cell-based, Clostridium difficile
# [4] = tested on: C. difficile NCTC 11204; test: Combination drug MIC (checkerboard), C. difficile NCTC 11204, RCM; assay type: cell-based, Clostridium difficile
# [5] = tested on: Clostridium difficile; test: Growth of Clostridium difficile in the presence of SCFA and H1L1 (OD600); assay type: cell-based; conditions: for Mean Optical Density at 24 Hours: OD600
# Description: The three SCFAs used were acetate, propionate and butyrate.
# Each was prepared to a concentration of 1 M as follows: • Sodium acetate FW 82.03-82.03 g in 1 litre dH2O • Sodium butyrate FW 110.09-110.09 g in 1 litre dH2O • Sodium propionate FW 96.06-96.06 g in 1 litre dH2O
# The three solutions were combined in a ratio of 70:20:10 respectively. Therefore, in the final solution the concentrations were sodium acetate 0.7 M, sodium butyrate 0.2 M and sodium propionate 0.1 M. The final concentration of total SCFA was 1 M.
# From this stock solution concentrations of 5, 10, 20, 30, 40 and 50 mM total SCFA were prepared using reinforced clostridial medium (RCM, DIFCO).
# Reinforced clostridial medium (RCM) was prepared according to the manufacturers instructions: 38 g in 1 litre dH2O
# Cultures were only removed from anaerobic conditions immediately prior to use.
# An overnight suspension of C. difficile was made by inoculation 10 ml of RCM medium with colonies from a 48 hour old Columbia Blood Agar plate of the organism. The suspension was incubated for 24 hours at 37° C. under anaerobic conditions.
# In a flat-bottomed 96 well microtitre plate control solutions (200 μl) were placed in the wells as outlined below in Table 4. Each control used 3 wells.
# In a flat-bottomed 96 well microtitre plate (rows labelled A-H, columns labelled 1-12) test solutions (100 μl) were placed in the wells as detailed below. The two test solutions, SCFA plus H1L1, give a combined volume of 200 μl. Each test used 2 wells. […] Wells in columns 1 and 2 contained 16 μg/ml H1L1; in columns 3 and 4, 8 μg/ml H1L1; in columns 5 and 6, 4 μg/ml H1L1; in columns 7 and 8, 2 μg/ml H1L1; in columns 9 and 10, 1 μg/ml H1L1; in columns 11 and 12, 0.5 μg/ml H1L1. Row G was empty. 200 μl RCM was placed into all the wells in row H as a growth control for the plate.
# The overnight suspension, culture at late log phase, was used to inoculate the microtitre plates. 20 μl (approx 10% inoculum) was added to all the wells, except for the media/negative control on the control plate.
# Plates were incubated at 37° C. under anaerobic conditions for 24 hours.
# Optical density readings (OD600 nm) were made at time points zero and 24 hours. Average OD600 nm readings were determined.
# [6] = tested on: C. difficile acetyl-CoA acetyl transferase (thiolase); test: Immunoblot of H1L1 against cloned acetyl-CoA acetyl transferase; assay type: binding, Clostridium difficile; conditions: H1L1 at 1:10 (approximately 400 μg/ml), purified His-tag thiolase, band just under 50 kD marker
# Chain of C. difficile acetyl-CoA acetyl transferase (thiolase) (as listed by the source): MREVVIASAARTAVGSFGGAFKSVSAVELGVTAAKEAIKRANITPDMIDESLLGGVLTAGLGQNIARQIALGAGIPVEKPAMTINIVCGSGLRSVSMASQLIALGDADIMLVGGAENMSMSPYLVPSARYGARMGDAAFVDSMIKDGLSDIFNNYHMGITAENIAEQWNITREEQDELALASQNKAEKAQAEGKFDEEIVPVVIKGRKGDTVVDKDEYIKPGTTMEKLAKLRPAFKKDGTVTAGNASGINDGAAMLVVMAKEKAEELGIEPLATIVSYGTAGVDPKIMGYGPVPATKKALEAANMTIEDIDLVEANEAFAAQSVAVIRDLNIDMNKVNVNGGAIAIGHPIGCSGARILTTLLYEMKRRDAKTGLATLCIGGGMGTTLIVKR
# Description: Cloned and purified acetyl-CoA acetyl transferase was mixed 1:1 with loading buffer and DTT and put on heating block at 90° C. for 5 minutes. 5-15 μl was separated for 35 minutes on a 10% BisTris gel (Invitrogen) using NuPAGE-MES SDS running buffer (Invitrogen).
# The proteins were transblotted onto Invitrolon PVDF membrane (Invitrogen Ltd, Carlsbad, Calif., USA) and blocked in 5% skimmed milk in 0.1% Tween20 in 10 mM PBS for 1 hour. The membrane was incubated with H1L1 at 1:10 (concentration approximately 400 μg/ml) in 0.1% Tween20 in 10 mM PBS for 1 hour. Washed three times for 5 minutes with 0.1% Tween20 in 10 mM PBS and then incubated for one hour with S-protein HRP conjugate (Novagen) at 1:1000.
# [7] = gentamicin + H1L1 combination, Brucella broth
# [8] = 8 μg/ml of H1L1 and SCFA from 10-50 mM
molecule,measurement,setting,value
"CN[C@H](CC(C)C)C(=O)N[C@H]1C(=O)N[C@@H](CC(N)=O)C(=O)N[C@H]2C(=O)N[C@H]3C(=O)N[C@H](C(=O)N[C@H](C(=O)O)c4cc(O)cc(O)c4-c4cc3ccc4O)[C@H](O)c3ccc(c(Cl)c3)Oc3cc2cc(c3O[C@@H]2O[C@H](CO)[C@@H](O)[C@H](O)[C@H]2O[C@H]2C[C@](C)(N)[C@H](O)[C@H](C)O2)Oc2ccc(cc2Cl)[C@H]1O [Vancomycin, vancomycin]",FICI,[1],0.37
same,MIC (μg/ml) of each agent Combination,[1],16 µg/mL
same,Outcome,[1],Synergy
same,MIC,"[1]; Enterococcus faecium, 24 h, read-out: MIC (μg/ml) of each agent Alone",128 µg/mL
same,FICI,[2],0.125
same,MIC (μg/ml) of each agent Combination,[2],0.125 µg/mL
same,Outcome,[2],Synergy
same,MIC,"[2]; Clostridioides difficile, NCR1104, 48 h, read-out: MIC (μg/ml) of each agent Alone",1 µg/mL
gentamicin [reference compound],MIC (μg/ml) of each agent Alone,[3]; Brucella broth,8 µg/mL
same,FIC (μg/ml),[3]; [7],0.25
same,FICI,[3]; [7],0.266
same,MIC (μg/ml) of each agent Combination,[3]; [7],2 µg/mL
same,Outcome,[3]; [7],Synergy
same,MIC (μg/ml) of each agent Alone,[4],16 µg/mL
same,FIC (μg/ml),[4]; gentamicin + H1L1 combination,0.25
same,FICI,[4]; gentamicin + H1L1 combination,0.375
same,MIC (μg/ml) of each agent Combination,[4]; gentamicin + H1L1 combination,4 µg/mL
same,Outcome,[4]; gentamicin + H1L1 combination,Synergy
B1,MIC (μg/ml) of each agent Alone,"[1]; agent alone, 24 h",512 µg/mL
same,FIC (μg/ml),[1]; vancomycin + H1L1 combination,0.25
same,MIC (μg/ml) of each agent Combination,[1]; vancomycin + H1L1 combination,128 µg/mL
same,Outcome,[1]; vancomycin + H1L1 combination,synergy (synergy was defined by a value of <=0.5)
same,Interaction of H1L1 and SCFA,[5]; [8],Synergy
same,optical density at 24 hours,[5]; [8],0.296-0.330
same,Effect on growth,[5]; 16 μg/ml of H1L1 alone,inhibition
same,Effect on growth,"[5]; 0.5, 1, 2, 4 and 8 μg/ml of H1L1 alone",No effect
same,Interaction of H1L1 and SCFA,"[5]; 1, 2 and 4 μg/ml of H1L1 and 5 mM of SCFA (data not shown)",Indifference
same,Mean Optical Density at 24 Hours,[5]; H1L1 0.5 μg/ml alone,0.450
same,Mean Optical Density at 24 Hours,[5]; H1L1 1 μg/ml alone,0.440
same,Mean Optical Density at 24 Hours,[5]; H1L1 2 μg/ml alone,0.440
same,Mean Optical Density at 24 Hours,[5]; H1L1 4 μg/ml alone,0.440
same,Mean Optical Density at 24 Hours,[5]; H1L1 8 μg/ml + SCFA 10 mM,0.310
same,Mean Optical Density at 24 Hours,[5]; H1L1 8 μg/ml + SCFA 20 mM,0.296
same,Mean Optical Density at 24 Hours,[5]; H1L1 8 μg/ml + SCFA 30 mM,0.305
same,Mean Optical Density at 24 Hours,[5]; H1L1 8 μg/ml + SCFA 40 mM,0.310
same,Mean Optical Density at 24 Hours,[5]; H1L1 8 μg/ml + SCFA 50 mM,0.330
same,Mean Optical Density at 24 Hours,[5]; H1L1 8 μg/ml alone,0.420
same,Mean Optical Density at 24 Hours,[5]; H1L1 16 μg/ml + SCFA 10 mM,0.308
same,Mean Optical Density at 24 Hours,[5]; H1L1 16 μg/ml + SCFA 20 mM,0.228
same,Mean Optical Density at 24 Hours,[5]; H1L1 16 μg/ml + SCFA 30 mM,0.308
same,Mean Optical Density at 24 Hours,[5]; H1L1 16 μg/ml + SCFA 40 mM,0.303
same,Mean Optical Density at 24 Hours,[5]; H1L1 16 μg/ml + SCFA 50 mM,0.281
same,Mean Optical Density at 24 Hours,[5]; H1L1 16 μg/ml alone,0.334
same,FIC (μg/ml),[2],0.0004
same,MIC (μg/ml) of each agent Combination,[2],0.25 µg/mL
same,Outcome,[2],synergy (key: synergy was defined by a value of <=0.5; indifference was defined by a value of >0.5 to <4; antagonism was defined by a value of >=4.0)
same,Outcome of combination,[3]; H1L1 and vancomycin versus C. difficile 14000287,synergy (synergy was defined by a value of <=0.5)
same,MIC (μg/ml) of each agent Alone,[3]; Brucella broth,512 µg/mL
same,FIC (μg/ml),[3]; [7],0.0156
same,MIC (μg/ml) of each agent Combination,[3]; [7],8 µg/mL
same,Outcome,[3]; [7],synergy (synergy was defined by a value of <=0.5)
same,MIC (μg/ml) of each agent Alone,[4],512 µg/mL
same,FIC (μg/ml),[4]; gentamicin + H1L1 combination,0.125
same,MIC (μg/ml) of each agent Combination,[4]; gentamicin + H1L1 combination,64 µg/mL
same,Outcome,[4]; gentamicin + H1L1 combination,synergy (synergy was defined by a value of <=0.5)
same,Immunoblot response to the thiolase band,[6],strong response
